Data on 11 molecules can be found in patent US20160228506A1, “Compositions and Formulations for Prevention and Reduction of Tumorigenesis, Cancer Cell Proliferation and Invasion, and Methods of Production and Use Thereof in Cancer Treatment” (PRONUTRIA, INC., priority 2013, published 2016).

Sequences and labels used below:
B1: SEQID-00407 (BS): α-amylase in Bacillus subtilis; Wild-type of Tables E37A and E38E (protein, listed as Bacillus subtilis)
chain: ETANKSNELTAPSIKSGTILHAWNWSFNTLKHNMKDIHDAGYTAIQTSPINQVKEGNQGDKSMSNWYWLYQPTSYQIGNRYLGTEQEFKEMCAAAEEYGIKVIVDAVINHTTSDYAAISNEVKSIPNWTHGNTQIKNWSDRWDVTQNSLLGLYDWNTQNTQVQSYLKRFLDRALNDGADGFRFDAAKHIELPDDGSYGSQFWPNITNTSAEFQYGEILQDSASRDAAYANYMDVTASNYGHSIRSALKNRNLGVSNISHYASDVSADKLVTWVESHDTYANDDEESTWMSDDDIRLGWAVIASRSGSTPLFFSRPEGGGNGVRFPGKSQIGDRGSALFEDQAITAVNRFHNVMAGQPEELSNPNGNNQIFMNQRGSHGVVLANAGSSSVSINTATKLPDGRYDNKAGAGSFQVNDGKLTGTINARSVAVLYPDDIAKAPHVFLENYKTGVTHSFNDQLTITLRADANTTKAVYQINNGPETAFKDGDQFTIGKGDPFGKTYTIMLKGTNSDGVTRTEKYSFVKRDPASAKTIGYQNPNHWSQVNAYIYKHDGSRVIELTGSWPGKPMTKNADGIYTLTLPADTDTTNAKVIFNNGSAQVPGQNQPGFDYVLNGLYNDSGLSGSLPH
modifications: source: /note="strain 168"
B2: SEQID-00001 (HEK293): nutritive polypeptide (protein, listed as Gallus gallus)
chain: MGSIGAASMEFCFDVFKELKVHHANENIFYCPIAIMSALAMVYLGAKDSTRTQINKVVRFDKLPGFGDSIEAQCGTSVNVHSSLRDILNQITKPNDVYSFSLASRLYAEERYPILPEYLQCVKELYRGGLEPINFQTAADQARELINSWVESQTNGIIRNVLQPSSVDSQTAMVLVNAIVFKGLWEKAFKDEDTQAMPFRVTEQESKPVQMMYQIGLFRVASMASEKMKILELPFASGTMSMLVLLPDEVSGLEQLESIINFEKLTEWTSSNVMEERKIKVYLPRMKMEEKYNLTSVLMAMGITDVFSSSANLSGISSAESLKISQAVHAAHAEINEAGREVVGSAEAGVDAASVSEEFRADHPFLFCIKHIATNAVLFFGRCVSP
modifications: expressed in HEK293
B3: SEQID-00357: nutritive polypeptide (protein)
chain: MKPLNRRTKIVATIGPASNSREVLYQMIQAGMNVVRLNFSHGSHEQHTKTVALLKEISQELKTSITLLQDLQGPKIRVGQLPDGGIQLMAGEYITLVPIDQYESKPNTIAIDYLHLGEEAEIGAQVLLDDGLLELKVEEISGNQVKCKIIEGGTLKSRKGVNLPSLTLRLPSLTEKDQQDLEFGISLGVDWVSLSFVRNAEDVRVLKDFLASKNASQISVMAKIEKPQAIANLEEIISECNGLMVARGDLGVEMSPERVPLLQKQIIRLCNQKGIPVITATQMLDSMINNPRPTRAEASDVANAIIDGTDAVMLSGESAVGKYPIRAVEMLAKIAEDVEPEINFINYPPAFNDETHAISEAINTIDKIIDLHCIIAYTCSGYTGQLAAAERPKAPVVALTPNPKVYHRLNLVWGVKPLLLEQEVESFEELINQAQTYLLVRQMASPGDKILIIGGIPSGKAKGTNFIKIHTIG
modifications: Arthrospira platensis NIES-39
B4: SEQID-00420: nutritive polypeptide (protein)
chain: AAAPLEKRSCTFTSASAAKSGKSSCSTITLDNIAVPAGETLDLTGLKKGTTVIFEGETTFGYKEWKGPLISMSGTDITVKQASGAKINCDGARWWDGKGSNGGKTKPKFFQAHKLDQSSITGLKVYNTPVQGFSILADHLTITDVTIDNSAGTSKGHNTDAFDIGQSTYITIDGATVYNQDDCLAINSGEHITFTNGYCDGGHGLSIGSIGGRSDNTVNDVTISNSKVLNSQNGVRIKTIYGKTGTVENVKFEDITLSDISKYGIVVEQDYENGSPTGTPTNGVKVEDITFKKVTGSVKSSGTDIYILCGSGSCSNWTWSGVDVTGGKKSSKCKNVPSGASCSD
modifications: Aspergillus niger; source: /note="strain CBS 513.88 / FGSC A1513"
B5: SEQID-00356: nutritive polypeptide (protein)
chain: MATAAEKLSALKSAVAGLNEISENEKNGFISLVGRYLSGEAQHVEWSKIQTPTDEVVVPYDTLAPTPEGSSEVKNLLDKLVVLKLNGGLGTTMGCTGPKSVIEVRDGLTFLDLIVIQIENLNSKYGSNVPLLLMNSFNTHDDTQKIVEKYQNSNIEIHTFNQSQYPRLVVEDFLPLPSKGHTDKDGWYPPGHGDVFPSLLNSGKLDALLSQGKEYVFVANSDNLGAIVDLKILNHLIQNKNEYCMEVTPKTLADVKGGTLISYEGRVQLLEIAQVPDEHVNEFKSIEKFKIFNTNNLWVNLNAVKRLVEADALKMEIIPNPKEVDGIKVLQLETAAGAAIRFFDKAIGINVPRSRFLPVKATSDLLLVQSDLYTLEDGFVIRNKARENPENPSIELGPEFKKVSNFLGRFKSIPSIVELDSLKVAGDVWFGAGVILKGKVSIVSKPGVKLEVPDGVAIVDKEINGPEDL
modifications: Glycine max
B6: SEQID-00672 (BS): nutritive polypeptide (protein, listed as Saccharomyces cerevisiae)
chain: MSSSESIRMVLIGPPGAGKGTQAPNLQERFHAAHLATGDMLRSQIAKGTQLGLEAKKIMDQGGLVSDDIMVNMIKDELTNNPACKNGFILDGFPRTIPQAEKLDQMLKEQGTPLEKAIELKVDDELLVARITGRLIHPASGRSYHKIFNPPKEDMKDDVTGEALVQRSDDNADALKKRLAAYHAQTEPIVDFYKKTGIWAGVDASQPPATVWADILNKLGKD
modifications: source: /note="strain ATCC 204508 / S288c"
B7: SEQID-00678 (BS): nutritive polypeptide (protein, listed as Saccharomyces cerevisiae)
chain: MSSSESIRMVLIGPPGAGKGTQAPNLQERFHAAHLATGDMLKSQIAKGTQLGLEAKKIMDQGGLVSDDIMVNMIKDELTNNPACKNGFILDGFPRTIPQAEKLDQMLKEQGTPLEKAIELKVDDELLVARITGRLIHPASGRSYHKIFNPPKEDMKDDVTGEALVQRSDDNADALKKRLAAYHAQTEPIVDFYKKTGIWAGVDASQPPATVWADILNKLGKD
modifications: source: /note="strain ATCC 204508 / S288c"
B8: SEQID-00363 (E. coli): SEQID-00363 expressed recombinantly in E. coli (protein)
chain: ATLDSWLSNEATVARTAILNNIGADGAWVSGADSGIVVASPSTDNPDYFYTWTRDSGLVLKTLVDLFRNGDTSLLSTIENYISAQAIVQGISNPSGDLSSGAGLGEPKFNVDETAYTGSWGRPQRDGPALRATAMIGFGQWLLDNGYTSTATDIVWPLVRNDLSYVAQYWNQTGYDLWEEVNGSSFFTIAVQHRALVEGSAFATAVGSSCSWCDSQAPEILCYLQSFWTGSFILANFDSSRSGKDANTLLGSIHTFDPEAACDDSTFQPCSPRALANHKEVVDSFRSIYTLNDGLSDSEAVAVGRYPEDTYYNGNPWFLCTLAAAEQLYDALYQWDKQGSLEVTDVSLDFFKALYSDAATGTYSSSSSTYSSIVDAVKTFADGFVSIVETHAASNGSMSEQYDKSDGEQLSARDLTWSYAALLTANNRRNSVVPASWGETSASSVPGTCAATSAIGTYSSVTVTSWPSIVATGGTTTTATPTGSGSVTSTSKTTATASKTSTSTSSTSCTTPTAVAVTFDLTATTTYGENIYLVGSISQLGDWETSDGIALSADKYTSSDPLWYVTVTLPAGESFEYKFIRIESDDSVEWESDPNREYTVPQACGTSTATVTDTWR
modifications: Aspergillus niger
B9: SEQID-00418: nutritive polypeptide (protein)
chain: VPRVRRQGASSSFDYKSQIVRGVNLGGWLVTEPWITPSLYDSTGGGAVDEWTLCQILGKDEAQAKLSSHWSSFITQSDFDRMAQAGLNHVRIPIGYWAVAPIDGEPYVSGQIDYLDQAVTWARAAGLKVLVDLHGAPGSQNGFDNSGHRGPIQWQQGDTVNQTMTAFDALARRYAQSDTVTAIEAVNEPNIPGGVNEDGLKNYYYGALADVQRLNPSTTLFMSDGFQPVESWNGFMQGSNVVMDTHHYQVFDTGLLSMSIDDHVKTACSLATQHTMQSDKPVVVGEWTGALTDCAKYLNGVGNAARYDGTYMSTTKYGDCTGKSTGSVADFSADEKANTRRYIEAQLEAYEMKSGWLFWTWKTEGAPGWDMQDLLANQLFPTSPTDRQYPHQCS
modifications: Aspergillus niger; source: /note="strain CBS 513.88 / FGSC A1513"
B10: SEQID-00418 (E. coli): nutritive polypeptide (protein)
chain: VPRVRRQGASSSFDYKSQIVRGVNLGGWLVTEPWITPSLYDSTGGGAVDEWTLCQILGKDEAQAKLSSHWSSFITQSDFDRMAQAGLNHVRIPIGYWAVAPIDGEPYVSGQIDYLDQAVTWARAAGLKVLVDLHGAPGSQNGFDNSGHRGPIQWQQGDTVNQTMTAFDALARRYAQSDTVTAIEAVNEPNIPGGVNEDGLKNYYYGALADVQRLNPSTTLFMSDGFQPVESWNGFMQGSNVVMDTHHYQVFDTGLLSMSIDDHVKTACSLATQHTMQSDKPVVVGEWTGALTDCAKYLNGVGNAARYDGTYMSTTKYGDCTGKSTGSVADFSADEKANTRRYIEAQLEAYEMKSGWLFWTWKTEGAPGWDMQDLLANQLFPTSPTDRQYPHQCS
modifications: Aspergillus niger; source: /note="strain CBS 513.88 / FGSC A1513"
B11: SEQID-00359: nutritive polypeptide naturally produced in Sheep, recombinantly expressed in E. coli (protein)
chain: MLELGSQRNRAKNNHIGDLMSQSFESLGISEQRARHLETLGFTEPTPVQIQAIPEMLSGRDVVGMAQTGTGKTAAFSLPILEQIDVHAAGIQALVLTPTRELAMQVKEAIRTFSDDNALYVLTVYGGQSIDRQIQRLRRGVQVVVGTPGRILDLLNRGELKLDLLRWLVLDEADEMLSMGFIQDVEKILESADSEHRQTAFFSATMDASISKLVRRHLKSPVTVKVETPKATPKRIEQSVYMVPRGWSKARALEPILELEDPESAIIFVRTKQSAADLTNQLQAAGHSVDEYHGNLNQSQRERLLMRLRRRQVRWIVATDIAARGLDVDHLTHVINYDLPDQVDSYVHRIGRTGRAGREGKAITLIQPIDRRKLRNIERHLRQTLSIQSIPKRAEIEARYIDRLKDRVRDALAGERMASFLPIVSQLSEEYDPHAIAAAALQLAYDQTRPASIGRDDYEDDDDAVSNKPKLIKRRRPASVSNNS
modifications: Arthrospira platensis NIES-39

The data set can be described thus: Intact half-life during simulated gastric fluid (SGF) digestion. Conditions: SGF pH 1.5, pepsin:polypeptide 1:20 w/w, 37° C.; intact protein.
Protocol: In this experiment the nutritive polypeptide was exposed to a series of proteases that are active in the stomach (pepsin) and intestine (trypsin and chymotrypsin), and the presence of intact protein was measured over time. Specifically, the nutritive polypeptide was first treated at a concentration of 2 g/L with simulated gastric fluid (SGF) (0.03 M NaCl, titrated with HCl to pH 1.5 with a final pepsin:polypeptide ratio of 1:20 w/w) at 37° C. Time points were sampled from the reaction and quenched by addition of 0.2 M Na2CO3. […] Time points were sampled from the reaction and quenched by addition of Trypsin/Chymotrypsin Inhibitor (Sigma) solution until 240 min.
Time point samples were analyzed for intact protein by chip electrophoresis, polyacrylamide gel electrophoresis, or western blot. For chip electrophoresis (Labchip GX II), samples were analyzed using a HT Low MW Protein Express LabChip® Kit (following the manufacturer's protocol). A protein ladder was loaded every 12 samples for molecular weight determination (kDa) and quantification. For polyacrylamide gel electrophoresis, samples (1 μg) were separated on a NuPAGE® Novex® Bis-Tris Precast gel (Life Technologies) according to the manufacturer's protocol. The gel was stained using SimplyBlue™ SafeStain (Invitrogen) and imaged using a Chemidoc XRS+ (BioRad) or transferred onto nitrocellulose membranes using the iBlot® Dry Blotting System (Life Technologies) and iBlot® Western Detection Kit (Life Technologies) according to the manufacturer's protocol. Proteins were detected by blotting with Anti-His [C-term]-HRP antibody diluted 3:5000 in Blok™-PO Blocking Buffer using the SNAP I.d.® Protein Detection System (Millipore) according to the manufacturer's protocol. Blots were treated with Luminata Classico Western HRP Substrate (Millipore) according to the manufacturer's protocol and imaged using chemiluminescent detection on the Molecular Imager® Gel Doc™ XR+ System (Bio-Rad). Quantification of intact protein was determined by densitometry using ImageLab (BioRad). For all analysis methods the relative concentration of the polypeptide at each time point (if detected) was plotted overtime and fit to an exponential curve to calculate the intact half-life.
Specifically, the t=0 (enzyme-free control) and t=2 min samples from the SGF digest were analyzed for intact protein as described by chip electrophoresis, SDS-PAGE, western blot, and/or LC-MS/MS. Relative quantities of polypeptides at each time point were determined and the percentage of intact protein remaining at t=2 was determined. Intact half-life values determined using this method are reported as greater or less than 2 min to indicate more or less than 50% of the protein remained intact at t=2 min, respectively.
For B1, the “SGF Half-life (t½)” value is 12 s.
With B2 the figure was 516 s; with B3, 12 s; with B4, 72 s.
With B5 the figure was 12 s; with B6, 18 s.
With B7 the figure was 12 s; with B8, less than 600 s.
Consider B9, for which the “SGF Half-life (t½)” value is 12 s.
For the molecule B10, the “SGF Half-life (t½)” value is 30 s.
Regarding B11, the “SGF Half-life (t½)” value is 12 s.
